In assay [1] the target is Flag-tagged human melanocortin-3 receptor (MC3R) on HEK293T cells (human) (UniProt P41968).
Assay [2] has as its target Flag-tagged human melanocortin-5 receptor (MC5R) on HEK293T cells (human) (UniProt P33032).
Chain of UniProt P33032 (P33032 whole entry): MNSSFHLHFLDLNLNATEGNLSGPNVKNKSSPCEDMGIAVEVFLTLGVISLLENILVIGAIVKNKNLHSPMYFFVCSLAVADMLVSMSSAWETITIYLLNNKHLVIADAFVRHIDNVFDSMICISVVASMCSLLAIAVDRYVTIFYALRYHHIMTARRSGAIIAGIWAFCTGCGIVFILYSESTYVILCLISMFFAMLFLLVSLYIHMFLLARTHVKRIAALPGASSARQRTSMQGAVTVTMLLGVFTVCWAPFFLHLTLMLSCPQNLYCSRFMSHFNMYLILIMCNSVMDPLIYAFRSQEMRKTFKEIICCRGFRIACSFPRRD

Chain of UniProt P41968 (P41968 whole entry): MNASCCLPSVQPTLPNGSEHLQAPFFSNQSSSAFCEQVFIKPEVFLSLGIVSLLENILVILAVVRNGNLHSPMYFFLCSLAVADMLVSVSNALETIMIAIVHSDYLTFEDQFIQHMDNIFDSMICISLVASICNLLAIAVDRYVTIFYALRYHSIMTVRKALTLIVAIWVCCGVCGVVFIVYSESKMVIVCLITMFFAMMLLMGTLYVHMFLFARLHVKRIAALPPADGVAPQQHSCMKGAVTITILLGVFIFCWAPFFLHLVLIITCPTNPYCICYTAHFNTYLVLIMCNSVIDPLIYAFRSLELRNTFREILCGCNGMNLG

setmelanotide (peptide): in assay [1], the cAMP signaling (GloSensor), HEK293 cells with human MC3R, EC50 worked out at 2.1 nM. For the same substance, the cAMP signaling (GloSensor), HEK293 cells with human MC5R, EC50 in assay [2] was 451 nM.

The values are drawn from paper PMC11445563.
